Legend:
[1] = target: Bxb1 gp31, tail wing arm (Mycobacteriophage Bxb1); assay: cryo-EM structure
[2] = target: Bxb1 gp19, tail tube protein (Mycobacteriophage Bxb1); assay: cryo-EM structure

stoichiometry N [1] | stoichiometry N [2] | Substance
2 | – | Bxb1 gp31, tail wing arm (natural protein)
– | 6 | Bxb1 gp19, tail tube protein (natural protein)

Source: article PMC12124961
